Reference: patent US20260176336A1 (MESTAG THERAPEUTICS, published 2026)
Residue numbers refer to the chain shown, from its start.

B1: Clone 4.17 (bispecific antibody)
heavy 1: not shown
heavy 2: QLQLQESGPGLVKPSETLSLTCTVSGGSISSSTYYWGWIRQPPGKGLEWIGSIFYSGNTYYNPSLKSRVTISVDTSKNQFSLRLNSVTAADTAVYYCAREIIEPRPGYFDYWGQGTLVTVSSASTKGPSVFPLAPSSKSTSGGTAALGCLVKDYFPEPVTVSWNSGALTSGVHTFPAVLQSSGLYSLSSVVTVPSSSLGTQTYICNVNHKPSNTKVDKKVEPKSCDKTHTCPPCPAPEAAGGPSVFLFPPKPKDTLMISRTPEVTCVVVDVSHEDPEVKFNWYVDGVEVHNAKTKPREEQYNSTYRVVSVLTVLHQDWLNGKEYKCKVSNKALPAPIEKTISKAKGQPREPQVCTLPPSRDELTKNQVSLSCAVKGFYPSDIAVEWESNGQPENNYKTTPPVLDSDGSFFLVSKLTVDKSRWQQGNVFSCSVMHEALHNHYTQKSLSLSPG
light: not shown
B2: Clone 4.18 (bispecific antibody)
heavy 1: not shown
heavy 2: B1 heavy 2
light: not shown
B3: Clone 4.16 (bispecific antibody)
heavy 1: not shown
heavy 2: QVQLVQSGTEVKKPGASVKVSCKASGYTFTGYYMNWVRQAPGQGLEWVGWINPNSGDTNFAQKFQGRVTMTRDSSISTAYMELSRLRSDDTAVYYCARQFRGYSYGYGMDVWGKGTTVTVSSASTKGPSVFPLAPSSKSTSGGTAALGCLVKDYFPEPVTVSWNSGALTSGVHTFPAVLQSSGLYSLSSVVTVPSSSLGTQTYICNVNHKPSNTKVDKKVEPKSCDKTHTCPPCPAPEAAGGPSVFLFPPKPKDTLMISRTPEVTCVVVDVSHEDPEVKFNWYVDGVEVHNAKTKPREEQYNSTYRVVSVLTVLHQDWLNGKEYKCKVSNKALPAPIEKTISKAKGQPREPQVCTLPPSRDELTKNQVSLSCAVKGFYPSDIAVEWESNGQPENNYKTTPPVLDSDGSFFLVSKLTVDKSRWQQGNVFSCSVMHEALHNHYTQKSLSLSPG
light: not shown
B4: Clone 3.4 (antibody, V domains shown)
VH: EVQLVESGGGLVKPGGSLRLSCVASGFTFSLAWMNWVRQAPGKGLEWVGHIKSRADGGSTDYAAPVKGRFTISRDDSKNTLYLHMNSLKTEDTAVYFCSRFYWNYVLDYWGQGTLVTVSS
VL: DIQMTQSPSSLSASVGDRVTITCRASQSINSYFNWYQQKPGKAPKLLIYAASGLQSGVPSRFSGSGSGTDFTLTISSLQPEDFATYYCQQSYSPPYTFGQGTNLEIK
notes: anti-FAP mAb (bivalent)
B5: Clone 3.1 (antibody, V domains shown)
VH: QLQLQESGPGLVKPSETLSLTCTVSGGSISSSTYYWGWIRQPPGKGLEWIGSIFYSGNTYYNPSLKSRVTISVDTSKNQFSLRLNSVTAADTAVYYCAREIIEPRPGYFDYWGQGTLVTVSS
VL: B4 VL with N30S, S31K, F33L, L46F, G53S, Y92N, P94I, Y96R, N103K, L104V
notes: anti-FAP mAb (bivalent)
B6: Clone 3.3 (antibody, V domains shown)
VH: QVQLVQSGTEVKKPGASVKVSCKASGYTFTGYYMNWVRQAPGQGLEWVGWINPNSGDTNFAQKFQGRVTMTRDSSISTAYMELSRLRSDDTAVYYCARQFRGYSYGYGMDVWGKGTTVTVSS
VL: DIQMTQSPSSLSASVGDRVTITCRASQNIGSYLNWYQQKPGKAPKLLIYAASSLQSGVPSRFSGSGSGTDFTLTISSLQPEDFATYYCQQANSFPFTFGPGTKVDIK
notes: anti-FAP mAb (bivalent)
B7: Clone 3.2 (antibody, V domains shown)
VH: QVQLVQSGAEVKKPGASVKVSCKASGYTFTGYYMHWVRQAPGQGLEWMGWIYPNTGGTNYAQNFQGRVTMTRDTSISTAYMELSSLRSDDTAVYYCARDDYNKNLDYWGQGTLVTVSS
VL: DIQMTQSPSTLSASVGDRGTITCRASQSIGSWLAWYQQKPGKTPKLLIYKASSLESGVPSRFSGSGSGTEFTLTISSLQPDDFATYYCQQYNSYFRTFGQGTKVEIK
notes: anti-FAP mAb (bivalent)
B8: Clone 1.2 (VHH, not shown: small tags and cut ends)
VHH: EVQLVESGGGLVQPGGSLRLSCAASGSSIFSFEIMAWYRQAPGKQRELVAVINKGGEANYPDSVEGRFTISRDNAKNTVYLQMNSLRPEDTAVYYCNADAVPHGSYWGQGTLVTVSS
notes: monovalent anti-LTBR VHH; also called 1.2 (parental clone for 1.5)
B9: Clone 1.4 (VHH, not shown: small tags and cut ends)
VHH: EVQLVESGGGLVQPGGSLRLSCKASGTTFSDRAFGWYRQAPGKQRELVATISTAGLTWYDVSVKGRFIISRDNPENTVYLQMNSLRPEDTAVYYCNTFRGNWGQGTLVTVSS
notes: monovalent anti-LTBR VHH; also called 1.4 (parental clone for 1.6)
B10: Clone 1.1 (VHH, not shown: small tags and cut ends)
VHH: EVQLVESGGGLVQPGGSLRLSCAASGRFFGIYDMYWYRQPPGKQRELVAISTSGGHTNYADSVKGRFTISRDNAKNTVYLQMNSLRPEDTAVYYCNIQRVDAPGMYWGQGTLVTV
notes: monovalent anti-LTBR VHH; also called 1.1 (parental clone for 1.7)
B11: Clone 1.3 (VHH, not shown: small tags and cut ends)
VHH: EVQLVESGGGLVQPGGSLRLSCAASGRTFTNYRMAWFRQAPGKEREAVAAINWNGGGTYYADSVKGRFTISRDNAKNTVYLQMNSLRPEDTAVYYCAADSTGWGSYFDYWGQGTLVTVSS
notes: monovalent anti-LTBR VHH; also called 1.3 (parental clone for 1.8)

The binders below were run against T1, human LTBR endogenously expressed on cells (HepG2, A549, A375, HCC1187, RPMI-7951, primary human breast CAFs) (human, UniProt P36941 31-435) (assay: cell-based or functional assay).
T1 sequence (P36941 31-435): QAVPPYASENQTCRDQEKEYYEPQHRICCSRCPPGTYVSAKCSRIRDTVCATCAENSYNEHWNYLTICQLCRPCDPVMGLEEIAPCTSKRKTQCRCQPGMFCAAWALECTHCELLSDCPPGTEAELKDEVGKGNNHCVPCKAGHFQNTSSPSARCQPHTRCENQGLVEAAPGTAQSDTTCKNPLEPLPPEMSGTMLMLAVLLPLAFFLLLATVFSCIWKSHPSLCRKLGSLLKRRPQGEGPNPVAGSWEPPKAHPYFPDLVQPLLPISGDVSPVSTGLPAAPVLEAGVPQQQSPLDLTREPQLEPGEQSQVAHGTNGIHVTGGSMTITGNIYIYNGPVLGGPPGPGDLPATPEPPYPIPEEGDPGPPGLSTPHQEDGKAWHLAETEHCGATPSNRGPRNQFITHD

B1 and B2 are within 1.5-fold of each other in “HepG2 Reporter assay, HepG2:FAP-CHO-K1 Co-culture EC50” value: 0.017 nM for the first, 0.023 nM for the second.

In the case of B3, the “HepG2 Reporter assay, HepG2:FAP-CHO-K1 Co-culture EC50” value is reported as 0.016 nM.

Molecular target: T1, human LTBR endogenously expressed on …
Assay: cell-based or functional assay
Remark: another data set of the same source

First: B1
Second: B2
The “CCL19 upregulation, HCC1187:CAF Co-culture EC50” value of the first is 2-fold lower: 0.06 nM for the first, 0.12 nM for the second.

In the case of B3, the “CCL19 upregulation, HCC1187:CAF Co-culture EC50” value is reported as 0.09 nM.

Molecular target: T1, human LTBR endogenously expressed on …
Assay: cell-based or functional assay
Remark: another data set of the same source

First: B1
Second: B2
The “chemokine (CCL5) induction in RPMI-7951 EC50” value of the first is 6.7-fold lower: 0.01 nM for the first, 0.067 nM for the second.

In the case of B3, the “chemokine (CCL5) induction in RPMI-7951 EC50” value is reported as 0.0078 nM.

Each binder was assayed against T2, human FAP expressed on cells (transfected HEK293; FAP-CHO-K1 recombinant cell line, BPS cat no. 79947) (human, UniProt Q12884 1-760) (assay: flow cytometry, HEK293-FAP overexpressing cells).
T2 construct: also called HuFAP-HEK293; Hek-FAP

B1 and B2 are within 1.5-fold of each other in EC50: 0.8 nM for the first, 1 nM for the second.

B3 gave an EC50 of 0.4 nM.

What follows are binders tested against T2, human FAP expressed on cells … (assay: flow cytometry, human FAP-transfected HEK293 cells).
Method: The binding of antibodies to human FAP expressed on transfected HEK293 cells was measured by FACS. In addition, binding to parental HEK293 was tested to confirm antibody specificity. In short, the cells were resuspended in the FACS binding buffer and live/dead efluro450 viability dye was added at a 1:1000 dilution to the cell suspension, followed by incubation at room temperature in the dark for 30 minutes. The cells were then diluted to 2 e5/ml, and 100 ul was added to wells of a 96-well U-bottom plate as required. […] The cells were pelleted by centrifugation, and the supernatant was discarded, followed by the addition of a series of dilutions of anti-FAP antibodies and incubation for 45 minutes at 4° C. in the dark. Cells were washed two times with PBS with 3% (w/v) BSA before adding 60 ul of fluorescently labelled secondary antibody (goat anti-human IgG) diluted to 1:200 in PBS. Incubation continued at 4 C for at least 30 minutes, followed by two washes in PBS pH 7.4. Cells were either fixed with 2% PFA (30 minutes at 4° C.) followed by washout and storage in 100 ul of PBS or immediately analysed on a Flow Cytometer. The data was analysed using FloJo V10 and GraphPad Prism. No binding to the HEK parental cell line was detected for any tested clones, confirming the specific interaction between anti-FAP antibodies and the FAP receptor. The results are summarised in.

First: B4
Second: B5
The EC50 of the first is 1.5-fold lower: 1.1 nM for the first, 1.7 nM for the second.

B6 and B7 are within 1.5-fold of each other in EC50: 0.6 nM for the first, 0.7 nM for the second.

Each binder was assayed against T1, human LTBR endogenously expressed on … (assay: flow cytometry, HepG2 cells, VHH detected by anti-FLAG).
Method: The purified proteins were tested for binding to endogenously expressed human LTBR in HepG2 cells. The expression level was confirmed with anti-LTBR clone CBE-11 (“huCBE11” as disclosed in WO2004002431). The HepG2 cells were resuspended to a final concentration of 1.0×10⁶ cells/ml in FACS buffer. A series dilution of purified VHHs was incubated with mouse anti-FLAG biotinylated antibody (Sigma Aldrich, cat. #F9291-1MG) at 5 μg/ml in FACS buffer for 30 min at RT with shaking. Cell suspensions were distributed into a 96-well v-bottom plate and incubated with the above-described VHH/antibody mixture for 1 hour on ice while shaking. VHH binding to cells was detected with streptavidin R-PE (Invitrogen, cat. #.SA10044) at 1:400 dilution (0.18 μg/ml) in FACS buffer, incubated for 30 minutes on ice with shaking and protection from light. The cells were acquired by flow cytometry. The data was analysed using FloJo V10 and GraphPad Prism. The EC50 values can be found in.

B8 and B9 are within 1.5-fold of each other in EC50: 1.6 nM for the first, 2.3 nM for the second.

Compared with B10, B11 is 2.9-fold higher in EC50: 0.41 nM for the first, 1.2 nM for the second. The first is the more potent here.

These binders were tested against Human FAP (Acro), recombinant protein (human, UniProt Q12884 26-760) (assay: SPR (Carterra LSA), antibody captured by anti-human Fc, FAP as analyte).
Method: (§1) Binding of anti-FAP antibodies to human and cynomolgus FAP was investigated by Surface Plasmon Resonance (SPR) on Carterra LSA. An EC30M chip was used to capture the test antibodies. The chip was activated for bioconjugation using EDC and sNHS in MES pH 5.5 to prepare the chip for amine coupling. Goat anti-human IgG Fc antibody was then captured to the chip via incubation for 10 minutes. Excess conjugation sites were quenched with 1M Ethanolamine pH 8. To measure monovalent binding kinetics, antibodies were printed/spotted onto the chip and allowed to bind to the goat antibody, followed by subsequent washing. After the preparation, the printed chip was exposed to repeated rounds of association and dissociation with increasing analyte concentrations. In this work, recombinant proteins (Human FAP (Acro) or cyno FAP His (Acro)) were serially diluted across a range starting at 1500 nM with 3-fold dilutions and 10 points. The curves were fitted to global fit in a 1:1 binding model to obtain KD values. The binding affinity to both human and cynomolgus FAP is reported in.

B4 and B5 are within 1.5-fold of each other in Kd: 0.033 nM for the first, 0.04 nM for the second.

Compared with B6, B7 is 2-fold higher in Kd: 0.023 nM for the first, 0.047 nM for the second.

The binders below were run against T3, cyno FAP His (Acro), recombinant protein (cynomolgus (Macaca fascicularis), UniProt Q12884 26-760 (human entry)) in the same assay as above.
T3 construct: bought protein used as analyte on Carterra LSA
Method: as §1

Going from B4 to B5, the Kd rises from 0.03 nM to 0.051 nM (1.7-fold). The first binds more tightly here.

B6 and B7 are within 1.5-fold of each other in Kd: 0.021 nM for the first, 0.028 nM for the second.

These binders were tested against T4, human recombinant LTBR fused on human Fc (SinoBiological, cat. #10581-H02H) (human, UniProt P36941 31-227) (assay: SPR (Biacore T200), LTBR-Fc on CM5 chip, periplasmic extract as analyte).
T4 construct: bought protein; also called human LTBR human IgG1 Fc chimera protein; not shown: human IgG1 Fc
T4 sequence (P36941 31-227 limits assumed): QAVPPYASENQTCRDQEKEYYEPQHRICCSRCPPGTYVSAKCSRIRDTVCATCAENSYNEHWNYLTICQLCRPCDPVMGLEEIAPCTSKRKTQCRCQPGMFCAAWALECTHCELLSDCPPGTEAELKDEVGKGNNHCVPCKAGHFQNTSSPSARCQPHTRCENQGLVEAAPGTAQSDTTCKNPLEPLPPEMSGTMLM
Method: (§2) To confirm species cross-reactivity, either human or cynomolgus recombinant LTBR-fused on human Fc (SinoBiological, cat. #10581-H02H and 90101-C02H) were immobilised on CM5 sensor chips (cat. #CFJB 334). 1:5 dilutions of crude periplasmic extracts of clones expressing VHHs were injected at 30 μl/min for 2 min in HBS-EP pH 7.4 buffer to allow for binding to chip-bound antigen. Next, an HBS-EP pH7.4 buffer without VHHs was injected for 5 minutes at the same flow rate to enable spontaneous dissociation of bound VHHs. Surface regeneration was done with 10 ul of 1 mM Glycine pH 1.5/1 M NaCl injected twice between samples. From the sensorgrams obtained on a BiacoreT200 machine, koff values were calculated by fitting a 1:1 interaction model (Langmuir model) using Insight Evaluation Software (Biacore). Based on this analysis, four clones were selected for further evaluation, and the results are included in.

Going from B8 to B9, the koff rises from 0.00069 s⁻¹ to 0.0018 s⁻¹ (2.6-fold).

First: B10
Second: B11
The koff of the first is 4.8-fold lower: 0.0008 s⁻¹ for the first, 0.0038 s⁻¹ for the second.

What follows are binders tested against T5, cynomolgus recombinant LTBR fused on human Fc (SinoBiological, cat. #90101-C02H) (cynomolgus (Macaca fascicularis), UniProt P36941 31-227 (human entry)) in the same assay as above.
T5 construct: bought protein
T5 sequence (P36941 other isoform, or with tags, fused parts or gaps C02H C02H limits assumed): as the sequence (P36941 31-227 limits assumed) above, with A2V, A7G, Q24R, I45S, N163D, K181R, L184S, P186S counted along it
Method: as §2

First: B8
Second: B9
The koff of the first is 2.7-fold higher: 0.0026 s⁻¹ for the first, 0.00097 s⁻¹ for the second.

Compared with B10, B11 is 2.2-fold higher in koff: 0.0014 s⁻¹ for the first, 0.0031 s⁻¹ for the second.
